Measured values: patent US20240003880A1 (TRUSTEES OF COLUMBIA UNIVERSITY IN THE CITY OF NEW YORK, published 2024)

Columns and labels:
[1] = target: T1, SARS-CoV-2 nucleocapsid phosphoprotein (SARS-CoV-2, UniProt P0DTC9 1-419); test: ELISA (FIG. 3)
[2] = target: T1, SARS-CoV-2 nucleocapsid phosphoprotein; test: Western blot on NP denatured with DTT and heat (FIG. 4)

B1: antibody 9-8 (antibody, V domains shown)
VH: EVQLVESGGGLVQPGGSLRLSCAASGFTFSTYWMSWVRQAPGKGLEWVANIKQDGSEKYYVDSVKGRFTISRDNAKNSLYLQMNSLRAEDTAVYYCARYSLDYYDTSGSFDYWGQGTLVAVSS
VL: SYELTQPPSVSVSPGQTARITCSGDALPKKYAYWYQQKSGQAPVLVIYEDSKRPSGIPERFSGSSSGTMATLTISGAQVEDEADYYCYSTDSSGNHRGVFGGGTQLTVL
[1]
  binding result: binds

B2: antibody 9-9 (antibody, V domains shown)
VH: EVQLVESGGGLVQPGGSLRLSCAASGFIFSNYWMSWVRQAPGKGLEWVANTKQDDSEKYYVDAVKGRFTISRDNAKNSLYLQMNSLRADDTAVYYCAREVRIAVTGTSRDEDYSYNGMDVWGQGTTVTVSS
VL: SYELTQPPSVSVSPGQTARITCSADALAKQYAYWYQQKPGQAPVLVIFKDSERPSGIPERFSGSSSGTTVTLTISRVQAEDEADYYCQSADSSGYYWAFGGGTKLTVL
[2]
  binding result: binds

B3: antibody 9-29 (antibody, V domains shown)
VH: EVQLVQSGAEVKKSGESLKISCKGSGYSFTNYWIGWVRQMPGKGLEWMGIIYPGDSDTRHSPSFQGQVTISADKSLRTAYLQWSSLKASDTAIYYCARGADGYSSYFDYWGQGTLVTVSS
VL: NFMLTQPHSVSESPGKTVIISCTRSSGSIASDYVQWYQQRPGSVPTTVIYEDNERPSGVPDRFSGSIDSSSNSASLTISGLKTEDEADYYCQSYDSSVQVFGGGTKLTVL
[2]
  binding result: binds
